Results from article PMC11940065 (2025).
Substitutions are numbered along the chain they refer to. Names may count otherwise.

B1: AHD1-UBAN E444F (domain or fragment)
chain: QRLNKALEEALSIQTPPSSPPTAFGSPFGAGALLRKQELVTQNELLKQQVKIFEEDFQRERSDRERMNEEKEELKKQVEKLQAQVTLSNAQLK
B2: AHD1-UBAN E425Q (domain or fragment)
chain: B1 chain with E9Q, F28E

Molecular target: Methionine-1-linked triubiquitin (UniProt P0CG48 1-76; P0CG48 1-76; P0CG48 1-76)
Assay: MST

Methionine-1-linked triubiquitin, sequence (P0CG48 1-228, one chain of several): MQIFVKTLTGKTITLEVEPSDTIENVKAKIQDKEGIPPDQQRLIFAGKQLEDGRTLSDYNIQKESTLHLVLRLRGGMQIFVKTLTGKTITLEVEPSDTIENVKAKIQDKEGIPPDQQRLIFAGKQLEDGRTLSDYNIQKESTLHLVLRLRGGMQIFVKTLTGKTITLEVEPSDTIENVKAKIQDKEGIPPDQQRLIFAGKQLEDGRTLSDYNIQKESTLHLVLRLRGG

Row | Binder | Kd
1 | B1 | 3.52 µM
2 | B2 | 5.5 µM
